{"source": "paper PMC3214078", "origin": "cited, not measured here", "key": {"[1]": {"molecular_target": "Histone H3 peptide N-terminal tail (Homo sapiens) (UniProt P68431)", "experiment": "tryptophan fluorescence"}, "[2]": {"molecular_target": "Histone H3 peptide N-terminal tail (Homo sapiens) (UniProt P68431)", "experiment": "ITC"}}}
{"substance": "UHRF1 PHD (from UniProt Q96T88)", "values": [{"measurement": "Kd", "setting": "[1]", "result": 3800, "unit": "nM"}, {"measurement": "Kd", "setting": "[2]", "result": 930, "unit": "nM"}]}
